B1: TBC1 domain family member 22A (Homo sapiens), Q8WUA7 (parent)
chain: MASDGARKQFWKRSNSKLPGSIQHVYGAQHPPFDPLLHGTLLRSTAKMPTTPVKAKRVSTFQEFESNTSDAWDAGEDDDELLAMAAESLNSEVVMETANRVLRNHSQRQGRPTLQEGPGLQQKPRPEAEPPSPPSGDLRLVKSVSESHTSCPAESASDAAPLQRSQSLPHSATVTLGGTSDPSTLSSSALSEREASRLDKFKQLLAGPNTDLEELRRLSWSGIPKPVRPMTWKLLSGYLPANVDRRPATLQRKQKEYFAFIEHYYDSRNDEVHQDTYRQIHIDIPRMSPEALILQPKVTEIFERILFIWAIRHPASGYVQGINDLVTPFFVVFICEYIEAEEVDTVDVSGVPAEVLCNIEADTYWCMSKLLDGIQDNYTFAQPGIQMKVKMLEELVSRIDEQVHRHLDQHEVRYLQFAFRWMNNLLMREVPLRCTIRLWDTYQSEPDGFSHFHLYVCAAFLVRWRKEILEEKDFQELLLFLQNLPTAHWDDEDISLLLAEAYRLKFAFADAPNHYKK
B2: Golgi resident protein GCP60 (Homo sapiens), Q9H3P7 (parent)
chain: MAAVLNAERLEVSVDGLTLSPDPEERPGAEGAPLLPPPLPPPSPPGSGRGPGASGEQPEPGEAAAGGAAEEARRLEQRWGFGLEELYGLALRFFKEKDGKAFHPTYEEKLKLVALHKQVLMGPYNPDTCPEVGFFDVLGNDRRREWAALGNMSKEDAMVEFVKLLNRCCHLFSTYVASHKIEKEEQEKKRKEEEERRRREEEERERLQKEEEKRRREEEERLRREEEERRRIEEERLRLEQQKQQIMAALNSQTAVQFQQYAAQQYPGNYEQQQILIRQLQEQHYQQYMQQLYQVQLAQQQAALQKQQEVVVAGSSLPTSSKVNATVPSNMMSVNGQAKTHTDSSEKELEPEAAEEALENGPKESLPVIAAPSMWTRPQIKDFKEKIQQDADSVITVGRGEVVTVRVPTHEEGSYLFWEFATDNYDIGFGVYFEWTDSPNTAVSVHVSESSDDDEEEEENIGCEEKAKKNANKPLLDEIVPVYRRDCHEEVYAGSHQYPGRGVYLLKFDNSYSLWRSKSVYYRVYYTR
B3: Golgi resident protein GCP60 (Homo sapiens), Q9H3P7 (parent)
chain: B2 chain
partner: B1 chain

Variants of: B1
Conditions: with gcp60_human ACBD3, Q9H3P7

Row | Variant | effect of a mutation on the interaction
1 | N90A;S91A;E92A | with no effect
2 | V101A;L102A | disrupting interaction strength
3 | V93A;V94A;M95A;E96A | decreasing interaction strength
4 | E96A;T97A | with no effect
5 | N99A;R100A | with no effect
6 | R103A;N104A;H105A | with no effect
7 | E92A;V93A | with no effect

Variants of: B1
Conditions: with gcp60_human ACBD3, Q9H3P7
Remark: another data set of the same source

Row | Variant | effect of a mutation on the interaction
8 | Q320A | with no effect
9 | T149E;S150E | decreasing interaction strength
10 | S165E | with no effect
11 | S165A | with no effect
12 | S165E;S167E | with no effect
13 | E87A;S88A;L89A | with no effect
14 | Q107A;R108A;Q109A | with no effect
15 | S167E | with no effect
16 | L81A;L82A | with no effect
17 | S165A;S167A | with no effect
18 | S132A | decreasing interaction strength
19 | Q163A;R164A;S165A;Q166A | with no effect

Variants of: B2
Conditions: with polg_aiva8 polg

Row | Variant | effect of a mutation on the interaction
20 | Q264A;Q265A;Y266A | with no effect
21 | S414A;Y415A;L416A | decreasing interaction strength
22 | E434A | with no effect
23 | Y512A | decreasing interaction strength
24 | E282A;Q283A;H284A;Y285A | with no effect
25 | S513A | with no effect
26 | S344A;S345A | with no effect
27 | S511A | with no effect
28 | G494A;S495A;H496A | disrupting interaction strength
29 | F433A;E434A;W435A | disrupting interaction strength
30 | H496A | with no effect
31 | F417A;W418A;E419A;F420A | disrupting interaction strength
32 | S511A;Y512A;S513A | disrupting interaction strength
33 | W435A | with no effect
34 | V256A;Q257A;F258A | with no effect
35 | F433A | disrupting interaction strength

Variants of: B2
Conditions: with polg_hkv1 polg

Row | Variant | effect of a mutation on the interaction
36 | Q264A;Q265A;Y266A | with no effect
37 | S414A;Y415A;L416A | disrupting interaction strength
38 | K507A;F508A;D509A;N510A | disrupting interaction strength
39 | E282A;Q283A;H284A;Y285A | with no effect
40 | S344A;S345A | with no effect
41 | G494A;S495A;H496A | disrupting interaction strength
42 | F433A;E434A;W435A | disrupting interaction strength
43 | F417A;W418A;E419A;F420A | disrupting interaction strength
44 | S511A;Y512A;S513A | disrupting interaction strength
45 | V256A;Q257A;F258A | with no effect

Variants of: B3
Conditions: with tb22a_human TBC1D22A

Row | Variant | effect of a mutation on the interaction
46 | Q259A;Q260A;Y261A | decreasing interaction strength
47 | R196A;R197A;R198A;R199A | with no effect
48 | R221A;L222A;R223A;R224A | with no effect
49 | K209A;E210A;E211A;E212A | with no effect
50 | Q274A;I275A;L276A;I277A | disrupting interaction strength
51 | E240A;Q241A;Q242A | with no effect
52 | K188A;K189A;R190A;K191A | with no effect
53 | I246A;M247A;Q253A;T254A | disrupting interaction strength
54 | R204A;E205A;R206A;L207A;Q208A | with no effect
55 | K213A;R214A;R215A;R216A | with no effect

Variants of: B3
Conditions: with tb22a_human TBC1D22A
Remark: another data set of the same source

Row | Variant | effect of a mutation on the interaction
56 | F417A;W418A;E419A;F420A | with no effect
57 | V256A;Q257A;F258A | disrupting interaction strength
58 | S344A;S345A | with no effect

Reference: IntAct's records for PubMed 23572552
